Assay results: paper PMC5679434 (Nature methods, 2017)

Target: Thermoplasma acidophilum 20S proteasome α-subunit (Thermoplasma acidophilum, UniProt P25156 1-233)
Experiment: cryo-EM structure

Chain of Thermoplasma acidophilum 20S proteasome α-subunit (P25156 whole entry): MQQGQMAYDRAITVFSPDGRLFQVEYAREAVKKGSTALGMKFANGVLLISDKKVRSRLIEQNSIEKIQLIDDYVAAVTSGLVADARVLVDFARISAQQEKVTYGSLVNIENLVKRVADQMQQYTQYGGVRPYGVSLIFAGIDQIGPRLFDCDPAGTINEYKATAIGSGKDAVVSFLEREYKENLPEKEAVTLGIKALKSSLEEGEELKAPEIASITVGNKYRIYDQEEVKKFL

B1: Thermoplasma acidophilum 20S proteasome β-subunit (natural protein, UniProt P28061 9-211, looked up)
chain: TTTVGITLKDAVIMATERRVTMENFIMHKNGKKLFQIDTYTGMTIAGLVGDAQVLVRYMKAELELYRLQRRVNMPIEAVATLLSNMLNQVKYMPYMVQLLVGGIDTAPHVFSIDAAGGSVEDIYASTGSGSPFVYGVLESQYSEKMTVDEGVDLVIRAISAAKQRDSASGGMIDVAVITRKDGYVQLPTDQIESRIRKLGLIL
B1: binds.
